Measured values published in publication PMC12931234, “Allosteric Modulation of Pathological Ataxin‐3 Aggregation: A Path to Spinocerebellar Ataxia Type‐3 Therapies” (Advanced Science, 2025).

Biological target: the molecule itself
Assay: thioflavin T fluorescence aggregation assay; 5 µM protein (monomer peak from Superose 12), 30 µM ThT, 37 °C, 20 mM HEPES pH 7.5, 150 mM NaCl, 1 mM DTT; without or with CLR01 or CLR03; amyloid self-assembly

B1: Truncated ataxin-3 variant comprising the N-terminal globular Josephin domain (Atx3 JD) (domain or fragment, human, UniProt P54252-2 1-180, looked up)
chain: MESIFHEKQEGSLCAQHCLNNLLQGEYFSPVELSSIAHQLDEEERMRMAEGGVTSEDYRTFLQQPSGNMDDSGFFSIQVISNALKVWGLELILFNSPEYQRLRIDPINERSFICNYKEHWFTVRKLGKQWFNLNSLLTGPELISDTYLALFLAQLQQEGYSIFVVKGDLPDCEADQLLQM
notes: Ataxin-3 (Atx3), human, UniProt P54252-2, N-terminal globular Josephin domain; printed MW 23 767.87 Da; The text names residues up to R182; NMR models of JD: PDB 1YZB and 2AGA (cited); also called isolated JD; not shown: His6, N-terminal, kept
B1: binds.
